Laboratory results from article PMC8247850, “The Peculiar Case of the Hyper‐thermostable Pyrimidine Nucleoside Phosphorylase from Thermus thermophilus” (Chembiochem, 2021).

T1: TtPyNP (Thermus thermophilus pyrimidine nucleoside phosphorylase) (Thermus thermophilus, UniProt Q5SHF9)
T1 construct: gene TTHA1771
T1 sequence (Q5SHF9 1-423): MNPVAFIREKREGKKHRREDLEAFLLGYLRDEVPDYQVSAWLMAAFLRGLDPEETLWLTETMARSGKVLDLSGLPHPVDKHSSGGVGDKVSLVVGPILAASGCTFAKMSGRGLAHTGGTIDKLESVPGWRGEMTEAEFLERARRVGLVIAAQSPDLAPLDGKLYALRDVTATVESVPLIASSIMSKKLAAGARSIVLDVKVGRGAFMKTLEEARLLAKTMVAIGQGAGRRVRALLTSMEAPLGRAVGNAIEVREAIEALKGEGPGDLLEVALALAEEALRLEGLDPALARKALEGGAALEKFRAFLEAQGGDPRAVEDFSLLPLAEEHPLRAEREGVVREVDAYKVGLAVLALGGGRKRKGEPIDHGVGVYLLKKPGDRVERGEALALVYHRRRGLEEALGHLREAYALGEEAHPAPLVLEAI

B1: TtPyNP (Thermus thermophilus pyrimidine nucleoside phosphorylase) (Thermus thermophilus HB8) (protein)
chain: T1 sequence (Q5SHF9 1-423)
notes: tag not described in the main text

What was measured:
[1] = molecular target: T1, TtPyNP (Thermus thermophilus pyrimidine nucleoside phosphorylase); details: co-substrate uridine
[2] = substrate: O=c1ccn([C@@H]2O[C@H](CO)[C@@H](O)[C@H]2O)c(=O)[nH]1; test: UV spectral unmixing of phosphorolysis initial rates; format: biochemical, Thermus thermophilus; details: 80 °C, pH 7, saturating phosphate, Michaelis-Menten-like only up to 1-2 mM, inhibition at higher concentration

| Molecule | K M [1] | Km [2] [mM] | kcat [2] [s⁻¹] |
| --- | --- | --- | --- |
| O=P(O)(O)O [phosphate] | saturating phosphate concentrations for which typical Michaelis–Menten behavior was observed; Figure S4 |  |  |
| B1 |  | 5.92 ± 8.72 | 624.89 ± 823.49 |
